Experiment [1] deals with T1, KAAG1 on the surface of cancer cells (SKOV-3, TOV-21G ovarian cancer cells) (human, UniProt Q9UBP8 31-84).
T1 construct: endogenous KAAG1 of human cancer cell lines; Also used for the Triton X-100 permeabilized SKOV-3 cells (named in the assay field); also called KAAG1 antigen; cell surface KAAG1
T1 sequence: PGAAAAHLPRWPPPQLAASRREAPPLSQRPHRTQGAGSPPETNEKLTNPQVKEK
The experiment is described as follows: flow cytometry on KAAG1-expressing cancer cells (told in the summary). Background: In flow cytometry, cells or beads pass a laser one at a time.

Experiment [2] concerns the target T2, Fc-KAAG1 truncated mutant ending at amino acid 35 of KAAG1 (human, not fully specified; biotinylated).
T2 construct: also called KAAG1 truncated Fc-fusion (1-35); not shown: Fc part from vector pYD5
T2 chain: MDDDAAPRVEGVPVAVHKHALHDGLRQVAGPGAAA
The experiment is described as follows: ELISA: biotinylated Fc-KAAG1 1-35 on streptavidin plate, OD450. As for the experimental part:
(§1) The expression and purification of human recombinant KAAG1 as an Fc fusion protein is found in PCT/CA2009/001586. To carry out the binding of Fc-KAAG1 to the antibody preparation, the Fc-KAAG1 was biotinylated with NHS-biotin (Pierce, Rockford, Ill.) and 10 ng/well was coated in a streptavidin 96-well plate for 1 h at room temperature. Purified chimeric 3A4 was added at increasing concentrations and incubated at room temperature for 30 minutes. Bound antibody was detected with HRP-conjugated human anti-kappa light chain antibody in the presence of TMB liquid substrate (Sigma-Aldrich Canada Ltd., Oakville, ON) and readings were conducted at 450 nm in microtiter plate reader. […] When the control unrelated IgG was incubated with the recombinant KAAG1, no binding activity was observed, even at the very highest concentration. […] The binding of 3A4 was compared to the binding of the chimeric 3D3 (described in Tremblay and Filion (2009)), that has different epitope specificity (see Example 2). The binding activity of 3A4 is very similar to 3D3 in this type of assay (see FIG. 1).
(§2) Based on the teachings of Tremblay and Filion (2009), it was known that other antibodies interacted with specific regions of recombinant KAAG1. Thus, anti-KAAG1 antibody 3C4, 3D3, and 3G10 interacted with the regions 1-35, 36-60, and 61-84 of KAAG1, respectively. […]
On the technique in general: ELISA stands for enzyme-linked immunosorbent assay.

For experiment [3], the target named is T3, Fc-KAAG1 truncated mutant ending at amino acid 60 of KAAG1 (human, UniProt Q9UBP8 1-60, biotinylated).
T3 construct: also called KAAG1 truncated Fc-fusion (1-60); not shown: Fc part from vector pYD5
T3 sequence: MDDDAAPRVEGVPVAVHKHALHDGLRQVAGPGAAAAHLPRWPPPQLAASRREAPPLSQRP
In words: ELISA: biotinylated Fc-KAAG1 1-60 on streptavidin plate, OD450. Here is the method: as §1, §2

Experiment [4] addresses T4, recombinant human KAAG1 (purified protein) (human, UniProt Q9UBP8 1-84, limits assumed).
T4 construct: also called gel filtration purified KAAG1
T4 sequence: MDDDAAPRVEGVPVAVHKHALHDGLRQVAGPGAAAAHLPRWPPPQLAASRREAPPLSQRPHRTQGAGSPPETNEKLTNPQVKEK
The experiment is described as follows: surface plasmon resonance (told in the summary); summary statement; form of 3A4 and SPR set-up not stated. On the technique in general: SPR reads the build-up and loss of mass on a sensor chip optically.

Experiment [5] deals with T4, recombinant human KAAG1 (purified …). The experiment is described as follows: SPR (ProteOn XPR36), antibody captured on anti-human IgG Fc, KAAG1 as analyte, 25 C; parent LcHc (chimeric 3A4). Here is the method: (§3) Immediately after the activation, a 13 μg/mL solution of anti-human IgG Fc fragment specific in 10 mM NaOAc pH 4.5 was injected in the analyte direction at a flow rate of 25 μL/min until approximately 8000 resonance units (RUs) were immobilized. Remaining active groups were quenched by a 300 s injection of 1M ethanolamine at 30 μL/min in the analyte direction, and this also ensures mock-activated interspots are created for blank referencing. The screening of the 3A4 variants for binding to KAAG1 occurred in two steps: an indirect capture of 3A4 variants from cell supernatant onto the anti-human IgG Fc fragment specific surface in the ligand direction (vertical) followed by a KAAG1 injection in the analyte direction. Firstly, one buffer injection for 30 s at 100 uL/min in the ligand direction was used to stabilize the baseline. […] Four to five 3A4 variants along with wild-type 3A4 were simultaneously injected in individual ligand channels for 240 s at flow 25 μL/min. […] The first ligand channel was left empty to use as a blank control if required. […]
(§4) Sensorgrams were aligned and double-referenced using the buffer blank injection and interspots, and the resulting sensorgrams were analyzed using ProteOn Manager software v3.0.

Experiment [6] has the same target. The experiment is described as follows: SPR as above; KD relative to LcHc. Here is the method:
Immediately after the activation, a 13 μg/mL solution of anti-human IgG Fc fragment specific in 10 mM NaOAc pH 4.5 was injected in the analyte direction at a flow rate of 25 μL/min until approximately 8000 resonance units (RUs) were immobilized. Remaining active groups were quenched by a 300 s injection of 1M ethanolamine at 30 μL/min in the analyte direction, and this also ensures mock-activated interspots are created for blank referencing. The screening of the 3A4 variants for binding to KAAG1 occurred in two steps: an indirect capture of 3A4 variants from cell supernatant onto the anti-human IgG Fc fragment specific surface in the ligand direction (vertical) followed by a KAAG1 injection in the analyte direction. Firstly, one buffer injection for 30 s at 100 uL/min in the ligand direction was used to stabilize the baseline. […] Four to five 3A4 variants along with wild-type 3A4 were simultaneously injected in individual ligand channels for 240 s at flow 25 μL/min. […] The first ligand channel was left empty to use as a blank control if required. This 3A4 capture step was immediately followed by two buffer injections in the analyte direction to stabilize the baseline, and then the gel filtration purified KAAG1 was injected. For a typical screen, five KAAG1 concentrations (8, 2.66, 0.89, 0.29, and 0.098 nM) and buffer control were simultaneously injected in individual analyte channels at 50 μL/min for 120 s with a 600 s dissociation phase, resulting in a set of binding sensorgrams with a buffer reference for each of the captured 3A4 variants. The anti-human IgG Fc fragment specific—3A4 complexes were regenerated by a 18 s pulse of 0.85% phosphoric acid for 18 s at 100 μL/min to prepare the anti-human IgG Fc fragment specific surface for the next injection cycle.
as §4

For experiment [7] the target is unchanged. In words: SPR (ProteOn XPR36). As for the experimental part: as §3, with “Remaining” for “Immediately after the activation, a 13 μg/mL solution of anti-human IgG Fc fragment specific in 10 mM NaOAc pH 4.5 was injected in the analyte direction at a flow rate of 25 μL/min until approximately 8000 resonance units (RUs) were immobilized. Remaining”
Sensorgrams were aligned and double-referenced using the buffer blank injection and interspots, and the resulting sensorgrams were analyzed using ProteOn Manager software v3.0. The kinetic and affinity values were determined by fitting the referenced sensorgrams to the 1:1 Langmuir binding model using local Rₘₐₓ, and affinity constants (KD M) were derived from the resulting rate constants (kd s⁻¹/kₐ M⁻¹s⁻¹).

For experiment [8] the target is unchanged. The experiment is described as follows: surface plasmon resonance (told in the summary).

Substitutions are numbered along the chain they refer to.

B1: 3A4 chimeric anti-KAAG1 antibody (mouse-human chimeric IgG1) (antibody, V domains shown)
VH: QIQLVQSGPEMVKPGASVKMSCKASGYTFTDDYMSWVKQSHGKSLEWIGDINPYNGDTNYNQKFKGKAILTVDKSSSTAYMQLNSLTSEDSAVYYCARDPGAMDYWGQGTSVTVSS
VL: DVVMTQTPLSLAVSLGDQASISCRSSQSLLHSNGNTYLEWYLQKPGQSPKLLIHTVSNRFSGVPDRFSGSGSGTDFTLKISRVEAEDLGVYYCFQGSHVPLTFGAGTRLELKR
notes: also called chimeric 3A4; murine 3A4
In the case of B1, the “fold less antibody required compared to 3G10” value in experiment [1] was approximately 10 fold. Besides, the binding result in experiment [2] and in experiment [3] was “no binding (tested: not given on the sheet)” each time. Also, the Kd – broadly, the equilibrium constant for the complex coming apart – in experiment [4] is approximately 0.057 nM; in experiment [5], 0.057 nM.

B2: humanized 3A4 antibody Lh1Hh2 (antibody, human IgG1, kappa, V domains shown)
VH: QIQLVQSGAEVKKPGASVKVSCKASGYTFTDDYMSWVRQAPGQGLEWMGDINPYNGDTNYNQKFKGRVTITADKSTSTAYMELSSLRSEDTAVYYCARDPGAMDYWGQGTLVTVSS
VL: DIVMTQTPLSLPVTPGEPASISCRSSQSLLHSNGNTYLEWYLQKPGQSPQLLIYTVSNRFSGVPDRFSGSGSGTDFTLKISRVEAEDVGVYYCFQGSHVPLTFGQGTKLEIKR
notes: human IgG1 kappa
Consider B2, for which the Fold diff. in experiment [6] came out at 13.2 fold.

B3: humanized 3A4 antibody Lh2Hh2 (antibody, human IgG1, kappa, V domains shown)
VH: B2 VH
VL: B2 VL with I2V, Q50K
notes: human IgG1 kappa
As to B3, the Fold diff. in experiment [6] was 15.3 fold.

B4: humanized 3A4 antibody Lh2Hh3 (antibody, human IgG1, kappa, V domains shown)
VH: B2 VH with M48I, V68A, I70L, A72V
VL: B2 VL with I2V, Q50K
notes: human IgG1 kappa
On to B4, for which the Fold diff. in experiment [6] was 14.3 fold.

B5: humanized 3A4 antibody Lh2Hh1 (antibody, human IgG1, kappa, V domains shown)
VH: B2 VH with I2V, K74T
VL: B2 VL with I2V, Q50K
notes: human IgG1 kappa
B5: in experiment [6], the Fold diff. is 21.3 fold.

B6: humanized 3A4 antibody Lh2Hh4 (antibody, human IgG1, kappa, V domains shown)
VH: B2 VH with R38K, M48I, R67K, V68A, I70L, A72V
VL: B2 VL with I2V, Q50K
notes: human IgG1 kappa; 10 mouse framework residues retained; also called H4L2
As for B6, the Fold diff. in experiment [6] came to 6.4 fold.

B7: humanized 3A4 antibody Lh1Hh3 (antibody, human IgG1, kappa, V domains shown)
VH: B2 VH with M48I, V68A, I70L, A72V
VL: B2 VL
notes: human IgG1 kappa
In the case of B7, the Fold diff. in experiment [6] came out at 9.3 fold.

B8: humanized 3A4 antibody Lh1Hh1 (antibody, human IgG1, kappa, V domains shown)
VH: B2 VH with I2V, K74T
VL: B2 VL
notes: 100% humanized frameworks; human IgG1 kappa; also called H1L1
For the molecule B8, in experiment [7], the “fold difference in binding affinity against the best variant H4L2” value is 4 fold. In experiment [6], the Fold diff. worked out at 29.6 fold.

B9: humanized 3A4 antibody Lh1Hh4 (antibody, human IgG1, kappa, V domains shown)
VH: B2 VH with R38K, M48I, R67K, V68A, I70L, A72V
VL: B2 VL
notes: human IgG1 kappa
In the case of B9, the Fold diff. in experiment [6] stood at 9.3 fold.

B10: 3G10 anti-KAAG1 antibody (antibody, V domains shown)
VH: EIQLQQSGPELVKPGASVKISCKASGYTFTDNYMNWVKQSHGKSLEWIGDINPYYGTTTYNQKFKGKATLTVDKSSRTAYMELRGLTSEDSAVYYCARDDWFDYWGQGTLVTVSA
VL: DVLMTQTPRSLSVSLGDQASISCRSSQSLLHSNGNTYLEWYLQKPGQPPKVLIYKVSNRFSGVPDRFSGSGSGTDFTLKISGVEAEDLGVYYCFQGSHVPLTFGAGTKLELK
As to B10, in experiment [8], the Kd is more than 200 nM and the “fold lower affinity than 3A4” value stood at 20 fold.

B11: 3D3 anti-KAAG1 antibody (chimeric 3D3) (antibody, V domains shown)
VH: EVQLQQSVAELVRPGASVTLSCKASGYIFTDYEIHWVKQTPVHGLEWIGVIDPETGNTAFNQKFKGKATLTADISSSTAYMELSSLTSEDSAVYYCMGYSDYWGQGTTLTVSS
VL: DIVMTQSPSSLAVSIGQKVTMNCKSSQSLLNSNFQKNFLAWYQQKPGQSPKLLIYFASTRESSIPDRFIGSGSGTDFTLTISSVQAEDLADYFCQQHYSTPLTFGAGTKLELK
Regarding B11, in experiment [8], the dissociation constant (Kd) is more than 200 nM and the “fold lower affinity than 3A4” value worked out at 20 fold.

The values above are taken from patent US20210054067A1 (ALETHIA BIOTHERAPEUTICS, published 2021).
